“And” between values parts separate entries of the source, which are not always exact repeats. Equal entries are not always repeated.
Legend:
Experiment in all cases: peptide-array ELISA [Con't]
[1] = target: S2…2TREQNRIC
[2] = target: ETSDVV2…
[3] = target: C2…2…
[4] = target: 2…2RPGW
[5] = target: V2…
[6] = target: SDVV2…
[7] = target: …2SK2SPGQH
[8] = target: TETSDVV2…
[9] = target: CAPEPGST2…2TSTSPTRC
[10] = target: CSR2…2TRCAPLRK2…
[11] = target: …2GGSGGQA2TREQNRIC
[12] = target: PE2LS2…2TREQNRIC
[13] = target: VPE2LS2…2…2
[14] = target: VPE2LS2…2RPGW
[15] = target: LS2…2…
[16] = target: WNWVPE2…
WNWVPE2…, sequence (peptide, as listed by the source): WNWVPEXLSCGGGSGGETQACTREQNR

[17] = target: SCGSR2…2
[18] = target: CLSKQEG2RL2…2RLC
[19] = target: …2TREQNRIC
[20] = target: CAPLRK2…2TREQNRI2T2RPC
[21] = target: CDQVETQA2…2…

agonistic TNFR2 antibody MR2-1 gave a Raw luminescence data [1] of 191, a Raw luminescence data [2] of 197 and a Raw luminescence data [3] of 194. For the same substance, the Raw luminescence data [4] was 224, the Raw luminescence data [5] was 222 and 197 and the Raw luminescence data [6] was 203 and 196. The Raw luminescence data [7] was 194, the Raw luminescence data [8] was 208 and the Raw luminescence data [9] was 213. The Raw luminescence data [10] was 210, the Raw luminescence data [11] was 206 and the Raw luminescence data [12] was 224. The Raw luminescence data [13] was 206, the Raw luminescence data [14] was 222 and the Raw luminescence data [15] was 198. The Raw luminescence data [16] was 220, the Raw luminescence data [17] was 192 and the Raw luminescence data [18] was 198. The Raw luminescence data [19] was 207 and 192, the Raw luminescence data [20] was 220 and the Raw luminescence data [21] was 201.
